Laboratory results taken from PMC2148128.

What was measured:
[1] = target: Crn1p (coronin1p), full-length recombinant (amino acids 1–651) (S. cerevisiae) (UniProt Q06440); test: co-sedimentation
[2] = target: taxol-stabilized bovine brain microtubules (tubulin) (bovine) (UniProt Q6B856); test: co-sedimentation

Kd [1] [µM] | Kd [2] [µM] | percent of Crn1p bound at 2 μM microtubules [2] [%] | percent of Crn1p bound at 10 μM microtubules [2] [%] | Molecule
2 |  |  |  | taxol-stabilized bovine brain microtubules (tubulin) (from UniProt Q6B856 1-445) (complex)
 | 15 to 20 | 20 | 40 | Crn1p (coronin1p), full-length recombinant (amino acids 1–651) (natural protein) MSGKFVRASKYRHVFGQAAKKELQYEKLKVTNNAWDSNLLKTNGKFIAVNWNASGGGAFAVIPIEEVGKAPDQVPLFRGHTAQVLDTDFDPFNDHRIASGSDDSKIGIWDIPENYKFHDHVDEDGEPIDIKPVKFLTGHARKVGHVLYHPVAENVLASSSGDYTVKLWNVETGKDMITLKHPDMVTSMSFSYDGNYLATVARDKKLRVWNIREEKIVSEGPAHTGAKNQRVVWLGNSDRLATTGFSKLSDRQIGIWDAFNIEKGDLGGFYTVDQSSGILMPFYDEGNKILYLVGKGDGNIRYYEFQNDELFELSEFQSTEAQRGFAVAPKRMVNVKENEVLKGFKTVVDQRIEPVSFFVPRRSEEFQEDIYPDAPSNKPALTAEEWFSGKSVEGPILVSMRSIYDGSAPSFHEAKRPQQPTTQETALEEKKEQPKVEKPISESEKEVKQEAPKSPSPLKSASSSSTINHVLKEDNSINKLLKKSSDIDQVNNAEDPSRDTSGWEEADDEPAPIKIETPVTPTETKKDRTPKVEPSKELKPEPVSIATDRKQEQSLPQEEKSSEKTKSPEQEKSATPPSSITAAKTAITASSKEEPSAARTSPKSLGLKKSVEKLSTLVLQLEDVVDKLTKANLDKDERLLKLEQKIGELSK
